Assay results from IntAct's records for PubMed 17167418.

B1: Synaptotagmin-2 (Mus musculus), P46097 (parent)
chain: MRNIFKRNQEPNVAPATTTATMPLAPVAPADNSTESTGPGESQEDMFAKLKEKFFNEINKIPLPPWALIAMAVVAGLLLLTCCFCICKKCCCKKKKNKKEKGKGMKNAMNMKDMKGGQDDDDAETGLTEGEGEGEEEKEPENLGKLQFSLDYDFQANQLTVGVLQAAELPALDMGGTSDPYVKVFLLPDKKKKYETKVHRKTLNPAFNETFTFKVPYQELAGKTLVMAIYDFDRFSKHDIIGEVKVPMNTVDLGQPIEEWRDLQGGEKEEPEKLGDICTSLRYVPTAGKLTVCILEAKNLKKMDVGGLSDPYVKIHLMQNGKRLKKKKTTVKKKTLNPYFNESFSFEIPFEQIQKVQVVVTVLDYDKLGKNEAIGKIFVGSNATGTELRHWSDMLANPRRPIAQWHSLKPEEEVDALLGKNK

Variants of: B1
Details: with bxb_clobo botB

Row | Variant | effect of a mutation on the interaction
1 | MRNIFKRNQEPNVAPATTTATMPLAPVAPADNSTESTGPGESQEDMAAKLKEKFFNEINKIPLPPWALIAMAVVAGLLLLTCCFCICKKCCCKKKKNKKEKGKGMKNAMNMKDMKGGQDDDDAETGLTEGEGEGEEEKEPENLGKLQFSLDYDFQANQLTVGVLQAAELPALDMGGTSDPYVKVFLLPDKKKKYETKVHRKTLNPAFNETFTFKVPYQELAGKTLVMAIYDFDRFSKHDIIGEVKVPMNTVDLGQPIEEWRDLQGGEKEEPEKLGDICTSLRYVPTAGKLTVCILEAKNLKKMDVGGLSDPYVKIHLMQNGKRLKKKKTTVKKKTLNPYFNESFSFEIPFEQIQKVQVVVTVLDYDKLGKNEAIGKIFVGSNATGTELRHWSDMLANPRRPIAQWHSLKPEEEVDALLGKNK [F47A] | disrupting interaction strength
2 | MRNIFKRNQEPNVAPATTTATMPLAPVAPADNSTESTGPGESQEDMFAKLKEKAFNEINKIPLPPWALIAMAVVAGLLLLTCCFCICKKCCCKKKKNKKEKGKGMKNAMNMKDMKGGQDDDDAETGLTEGEGEGEEEKEPENLGKLQFSLDYDFQANQLTVGVLQAAELPALDMGGTSDPYVKVFLLPDKKKKYETKVHRKTLNPAFNETFTFKVPYQELAGKTLVMAIYDFDRFSKHDIIGEVKVPMNTVDLGQPIEEWRDLQGGEKEEPEKLGDICTSLRYVPTAGKLTVCILEAKNLKKMDVGGLSDPYVKIHLMQNGKRLKKKKTTVKKKTLNPYFNESFSFEIPFEQIQKVQVVVTVLDYDKLGKNEAIGKIFVGSNATGTELRHWSDMLANPRRPIAQWHSLKPEEEVDALLGKNK [F54A] | disrupting interaction strength
3 | MRNIFKRNQEPNVAPATTTATMPLAPVAPADNSTESTGPGESQEDMFAKLKEKFANEINKIPLPPWALIAMAVVAGLLLLTCCFCICKKCCCKKKKNKKEKGKGMKNAMNMKDMKGGQDDDDAETGLTEGEGEGEEEKEPENLGKLQFSLDYDFQANQLTVGVLQAAELPALDMGGTSDPYVKVFLLPDKKKKYETKVHRKTLNPAFNETFTFKVPYQELAGKTLVMAIYDFDRFSKHDIIGEVKVPMNTVDLGQPIEEWRDLQGGEKEEPEKLGDICTSLRYVPTAGKLTVCILEAKNLKKMDVGGLSDPYVKIHLMQNGKRLKKKKTTVKKKTLNPYFNESFSFEIPFEQIQKVQVVVTVLDYDKLGKNEAIGKIFVGSNATGTELRHWSDMLANPRRPIAQWHSLKPEEEVDALLGKNK [F55A] | disrupting interaction strength
